Assay results taken from the RNAGym collection of RNA variant scans (doi:10.7554/elife.80360).

B1: HDV Ribozyme (parent)
chain: GGCCGGCAUGGUCCCAGCCUCCUCGCUGGCGCCGGCUGGGCAACAUUCCGAGGGGACCGUCCCCUCGGUAAUGGCGAAUGGGACCCA

Variants of: B1
Test: self-cleavage, relative activity (ratio to wild type); higher = more cleavage; co-transcriptional

Variant	self-cleavage
G31A C58U	0.399
G31A G34U	0.0863
G31C A45G	0.293
G31C A45C	0.104
G31U G73A	0.0627
G31U G73C	0
G31U G73U	0.171
G31U A87C	0.358
G31U A87G	0.323
G31U C41G	0.0437
G31U C41U	0.151
G31U U65A	0.318
G31U U65G	0.383
G31U C63G	0.483
G31U C63A	0.468
G31U C63U	0.41
G31A G39U	0.0898
G31A G39A	0.257
C30U C85A	0.441
G31U C44A	0.0707
G31U C44U	0.156
G31C C86A	0.312
G31C C86U	0.295
G31A U47A	0.332

Variant	self-cleavage
G31A U47C	0.424
G31A A56G	0.369
G31U C49A	0.451
G31C A87C	0.531
G31C A87G	0.226
C32A A45G	0.198
C32A A45U	0.151
G31C A78U	0.148
C30U C62G	0.475
C30U G40A	0.645
G31A A70C	0.407
G31A A70U	0.101
G31U C57G	0.439
G31U C32U	0.115
G31U C32G	0.0978
C30U G39U	0.0936
C30U G39C	0.0314
G31A G54C	0.254
G31A G54A	0.295
G31A G54U	0.197
G31C A51U	0.212
G31A A71U	0.447
G31A A71G	0.432
G31A A71C	0.251

Variant	self-cleavage
G31A C86G	0.573
C30U G81U	0.149
C30U G81C	0.148
C30U U79A	0.293
C32A A51C	0.244
C32A A51G	0.162
G31A G81C	0.179
G31C U60G	0.222
G31A A51C	0.396
G31A A51G	0.554
G31A A51U	0.283
G31C U37C	0.0707
G31C G55A	0.546
G31C G55U	0.338
G31C G40C	0.0346
G31C G40U	0.229
G31A G38C	0.142
G31A G82C	0.146
G31A G82A	0.166
G31A A43C	0.106
G31A A43G	0.0386
G31U G68C	0.344
G31U G68A	0.38
G31U G68U	0.427

Variant	self-cleavage
G31A C84A	0.326
G31A C84U	0.337
G31C G82A	0.0563
C32A C41G	0
C32A C41A	0.089
G31A C75U	0.122
C30U G52A	0.621
C30U G55U	0.789
C30U U60C	0.831
C30U U60A	0.69
G31U C85A	0.288
G31U C85U	0.441
C30U G73C	0.136
C30U G73A	0.277
G31A C61U	0.442
G31C C85A	0.317
G31C C85U	0.299
C30U G76U	0.805
C30U G76C	0.683
G31U G74A	0.151
G31U U60C	0.639
G31U U60A	0.379
G31U U60G	0.212
G31C U79G	0

Variant	self-cleavage
C30U C64A	0.422
C30U C64G	0.653
G31U A43U	0.149
G31U A43C	0.0504
G31U G40C	0.0519
G31C U47G	0.383
G31C U47C	0.499
C30U C63G	0.47
G31U U37A	0.172
G31U U37C	0.415
C32A A43G	0.119
C32A A43U	0.108
C32A A43C	0.162
G31A U37C	0.366
G31A U37G	0.242
C30U G68A	0.546
G31A G53U	0.346
G31A G53C	0.305
C30U U65G	0.506
C30U U65A	0.689
C30U U65C	0.78
G31U G53U	0.322
G31U G53A	0.289
C30U G82U	0.252

Variant	self-cleavage
C30U G82C	0.102
G31U G81A	0.162
G31U G81C	0.208
C30U U69C	0.796
C30U U69A	0.594
C30U U72G	0.128
C30U U72A	0.277
C30U U72C	0.0959
C30U G38C	0
C30U G38U	0.262
C32A C48A	0.116
G31C G74C	0.106
G31C G74U	0.143
G31U G52A	0.431
G31U G76A	0.369
C30U C66G	0.607
C30U G74C	0.113
C30U G74A	0.0329
G31U G55A	0.506
G31U G55U	0.324
G31A C62A	0.445
G31A C62G	0.317
G31A C62U	0.554
C32A A83U	0

Variant	self-cleavage
G31A C36A	0.117
G31A C36G	0.233
G31C C33G	0.0852
G31C C33A	0.0875
G31A U69C	0.525
G31A G76A	0.606
G31A G76U	0.749
C30U C75A	0.0959
G31A G59C	0.348
C32A A78C	0.0665
C32A A78G	0.113
G31U C84A	0.146
G31U C84G	0.138
G31U C84U	0.363
G31C G53A	0.572
G31C G53U	0.496
G31C U46C	0.178
C32A A70C	0.101
G31C G67C	0.272
G31C G67U	0.402
C30U G50A	0.728
G31C C32A	0.0875
G31C C32G	0.0396
G31C C32U	0.0723

Variant	self-cleavage
G31C C58A	0.325
G31C C58G	0.289
G31C C58U	0.339
G31C G73A	0.0346
G31C G73U	0.0779
G31C G35A	0.16
G31C C44U	0.106
G31A A87C	0.385
G31A A87G	0.352
G31C G52C	0.277
C30U U47A	0.532
C30U U47G	0.571
G31A G40C	0.144
G31U C48A	0.401
G31A U46G	0.0852
G31A U46C	0.166
C30U C84G	0.306
C30U C84U	0.319
C30U C84A	0.252
G31U A56C	0.389
G31C G81U	0.086
G31C A83U	0.173
G31C A83G	0.219
G31U U46C	0.306

Variant	self-cleavage
G31U G59A	0.546
G31U G59U	0.617
G31C C41U	0.138
G31C C41A	0.305
G31A C49U	0.404
G31U C62G	0.19
G31U C62U	0.404
G31U A77G	0.231
G31U A77U	0.0665
G31C C64A	0.148
G31C C64G	0.292
G31C C64U	0.324
C30U G31C	0.13
C30U G31U	0.0268
G31C G50A	0.343
G31C G50U	0.208
G31A C48A	0.616
C30U G53U	0.697
C30U G53A	0.547
C30U G53C	0.554
G31A G35A	0.0455
G31U G67C	0.245
G31A G80C	0.185
G31A G80A	0.103

Variant	self-cleavage
G31U U72A	0.141
G31U U72G	0.128
G31C A42C	0.128
G31C A42U	0.0707
G31U G34U	0.0791
C32A A42U	0.166
G31C G59A	0.483
G31C G59C	0.378
G31A C32G	0.198
G31A C32A	0.0941
G31C	0.363
G31U	0.47
G31A	0.503
C32A A56C	0.293
C32A A56G	0.252
G31C C48U	0.475
G31U A45U	0.175
G31C G39A	0.0554
G31A G67C	0.513
G31U U47A	0.406
G31U A83G	0.16
G31U A83U	0.0627
G31U A83C	0.0898
C30U G54A	0.571

Variant	self-cleavage
C30U G54C	0.533
C30U G67C	0.649
G31A U60C	0.32
G31A C57U	0.421
G31U G80U	0.0675
G31U G80A	0.0519
G31A A45C	0.262
G31A A45U	0.185
C30U G59U	0.831
C30U G59C	0.67
C32A C33G	0.0405
C32A C33A	0.129
G31U A71U	0.181
G31A G55U	0.347
G31A C44A	0.192
G31A C44G	0.133
G31C A56C	0.325
G31C A56U	0.305
G31C A70C	0.266
G31A G50A	0.626
G31A G50U	0.442
G31C G80U	0.0811
G31C G80A	0.128
G31U C58G	0.282

Variant	self-cleavage
G31U C58U	0.571
G31U A51U	0.525
G31U A51G	0.369
G31U C36G	0.0906
G31U C36A	0.106
G31C C84A	0.443
G31U C64U	0.475
G31U C64G	0.514
G31C G34A	0.0963
C32A A71G	0.128
G31C C57A	0.282
G31C C57G	0.291
G31U U69C	0.396
G31U U69G	0.386
G31C G38C	0.135
G31C G38A	0.0692
G31U G35U	0.0443
G31U G50A	0.674
C30U G35U	0.0219
G31U G39U	0.285
G31A C66U	0.387
G31A C64A	0.359
G31A C41G	0.106
G31A C41U	0.269

Variant	self-cleavage
G31A C41A	0.273
G31C A77C	0.225
C30U G34C	0.0923
C30U G34U	0.135
G31U A70U	0.365
C32A A77C	0.219
C30U U37G	0
C30U U37A	0.256
C30U U37C	0.906
G31U C33G	0.0639
G31U C33A	0.0231
G31U C33U	0.125
G31C C66A	0.405
G31A U72C	0.256
G31A U72G	0.145
G31C U65A	0.394
G31C U65G	0.48
G31A C85A	0.415
G31A C85U	0.404
G31U G82U	0.0378
G31U G82A	0.185
G31C G54U	0.332
G31A C33G	0
G31A C33A	0.0744

Variant	self-cleavage
G31A C33U	0.359
G31C C61A	0.332
C32A A87C	0.129
G31U U79G	0.147
G31U U79A	0.148
G31U C86A	0.394
G31U C86G	0.451
G31C C75A	0.13
G31C C75U	0.111
G31C C62U	0.386
G31C G68C	0.138
G31C G68U	0.233
G31U G54A	0.403
G31U G54C	0.197
G31U G54U	0.369
G31A U65G	0.34
G31A U65C	0.462
G31A U65A	0.366
C30U U46G	0.231
G31A G74A	0.132
G31A A78C	0.169
G31A A78U	0.175
